Target: GST-WC-1 mini, LXXLL motif mutant (LAQLL changed to LAQAA) (Neurospora crassa) (UniProt Q01371)
Experiment: pull-down

UniProt Q01371, sequence (Q01371 838-1000, change not shown): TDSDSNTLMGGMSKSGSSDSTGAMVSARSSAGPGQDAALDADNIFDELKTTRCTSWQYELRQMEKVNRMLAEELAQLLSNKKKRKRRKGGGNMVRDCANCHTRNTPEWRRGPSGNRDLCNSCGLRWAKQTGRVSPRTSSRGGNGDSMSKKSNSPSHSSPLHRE

percent decrease of retained Gcn5p against WC-1 mini: 45%
Substance: S. cerevisiae Gcn5p, 35S-radiolabeled (from UniProt Q03330 1-439) (enzyme)

Reference: PMC3459862
